# Measurements from patent publication US20250346885A1, “SYSTEMS AND METHODS FOR TARGETED CONTINUOUS GENOME MUTAGENESIS” (The Broad Institute, Inc., priority 2023, published 2025).
# Experiments:
# double-stranded DNA = conditions: average base pairs unwound in a single binding event; cited from earlier work
# HEK3 locus = assay: HACE editing assay at the HEK3 locus, amplicon sequencing; type: cell-based, human; conditions: HEK293FT cells, HEs with and without UGI fusion
# Description: An example HACE Editor (HE) protein was constructed by fusing a hyperactive mutant of activation-induced cytidine deaminase (AID*Δ) with a Geobacillus stearothermophilus PcrA helicase that was previously optimized for processivity (PcrA M6). […] After the nCas9 creates a nick, the HE may load at the nick, start unwinding the DNA, and generate random mutations in the process.
# Separate plasmids expressing HE, nCas9, and a sgRNA targeting the HEK3 locus were transfected into HEK293FT cells. Cells were collected 72 hours after transfection, and editing rates were evaluated by amplicon sequencing. […] A strand bias with G>A substitutions occurring at a higher rate than C>T substitutions was detected, which likely reflects preferential repair of mismatches on the nicked strand. […]
# For short amplicon (˜300 bp) sequencing for HEK293T and A375 cells, the target region was amplified from genomic DNA samples using Phusion U Hot Start PCR master mix (ThermoFisher Scientific, F562) in a 20 μL reaction. […] Amplicons were pooled and prepared for sequencing on a NextSeq (Illumina) with paired-end reads (read1, 160 bp; index1, 8 bp; index2, 8 bp; read2, 160 bp). Reads were demultiplexed and analyzed with appropriate pipelines. […]
# Raw fastq reads obtained from sequencing were quality trimmed using BBduk(1) (BBMap v38.93) with the options “qtrim=r1 trimq=28 maq=25”. […]
Molecule,processivity range (double-stranded DNA),effect of UGI fusion on editing levels for AID (HEK3 locus)
"Sgs1: helicase with short-range processivity (protein, UniProt P35187 1-1447, looked up) ATP-dependent helicase SGS1: MVTKPSHNLRREHKWLKETATLQEDKDFVFQAIQKHIANKRPKTNSPPTTPSKDECGPGTTNFITSIPASGPTNTATKQHEVMQTLSNDTEWLSYTATSNQYADVPMVDIPASTSVVSNPRTPNGSKTHNFNTFRPHMASSLVENDSSRNLGSRNNNKSVIDNSSIGKQLENDIKLEVIRLQGSLIMALKEQSKLLLQKCSIIESTSLSEDAKRLQLSRDIRPQLSNMSIRIDSLEKEIIKAKKDGMSKDQSKGRSQVSSQDDNIISSILPSPLEYNTSSRNSNLTSTTATTVTKALAITGAKQNITNNTGKNSNNDSNNDDLIQVLDDEDDIDCDPPVILKEGAPHSPAFPHLHMTSEEQDELTRRRNMRSREPVNYRIPDRDDPFDYVMGKSLRDDYPDVEREEDELTMEAEDDAHSSYMTTRDEEKEENELLNQSDFDFVVNDDLDPTQDTDYHDNMDVSANIQESSQEGDTRSTITLSQNKNVQVILSSPTAQSVPSNGQNQIGVEHIDLLEDDLEKDAILDDSMSFSFGRQHMPMSHSDLELIDSEKENEDFEEDNNNNGIEYLSDSDLERFDEERENRTQVADIQELDNDLKIITERKLTGDNEHPPPSWSPKIKREKSSVSQKDEEDDFDDDFSLSDIVSKSNLSSKTNGPTYPWSDEVLYRLHEVFKLPGFRPNQLEAVNATLQGKDVFVLMPTGGGKSLCYQLPAVVKSGKTHGTTIVISPLISLMQDQVEHLLNKNIKASMFSSRGTAEQRRQTFNLFINGLLDLVYISPEMISASEQCKRAISRLYADGKLARIVVDEAHCVSNWGHDFRPDYKELKFFKREYPDIPMIALTATASEQVRMDIIHNLELKEPVFLKQSFNRTNLYYEVNKKTKNTIFEICDAVKSRFKNQTGIIYCHSKKSCEQTSAQMQRNGIKCAYYHAGMEPDERLSVQKAWQADEIQVICATVAFGMGIDKPDVRFVYHFTVPRTLEGYYQETGRAGRDGNYSYCITYFSFRDIRTMQTMIQKDKNLDRENKEKHLNKLQQVMAYCDNVTDCRRKLVLSYFNEDFDSKLCHKNCDNCRNSANVINEERDVTEPAKKIVKLVESIQNERVTIIYCQDVFKGSRSSKIVQANHDTLEEHGIGKSMQKSEIERIFFHLITIRVLQEYSIMNNSGFASSYVKVGPNAKKLLTGKMEIKMQFTISAPNSRPSTSSSFQANEDNIPVIAQKSTTIGGNVAANPPRFISAKEHLRSYTYGGSTMGSSHPITLKNTSDLRSTQELNNLRMTYERLRELSLNLGNRMVPPVGNFMPDSILKKMAAILPMNDSAFATLGTVEDKYRRRFKYFKATIADLSKKRSSEDHEKYDTILNDEFVNRAAASSNGIAQSTGTKSKFFGANLNEAKENEQIINQIRQSQLPKNTTSSKSGTRSISKSSKKSANGRRGFRNYRGHYRGRK",about 100 base pairs,
"Rep: helicase with short-range processivity (protein, UniProt P09980 1-673, looked up) ATP-dependent DNA helicase Rep: MRLNPGQQQAVEFVTGPCLVLAGAGSGKTRVITNKIAHLIRGCGYQARHIAAVTFTNKAAREMKERVGQTLGRKEARGLMISTFHTLGLDIIKREYAALGMKANFSLFDDTDQLALLKELTEGLIEDDKVLLQQLISTISNWKNDLKTPSQAAASAIGERDRIFAHCYGLYDAHLKACNVLDFDDLILLPTLLLQRNEEVRKRWQNKIRYLLVDEYQDTNTSQYELVKLLVGSRARFTVVGDDDQSIYSWRGARPQNLVLLSQDFPALKVIKLEQNYRSSGRILKAANILIANNPHVFEKRLFSELGYGAELKVLSANNEEHEAERVTGELIAHHFVNKTQYKDYAILYRGNHQSRVFEKFLMQNRIPYKISGGTSFFSRPEIKDLLAYLRVLTNPDDDSAFLRIVNTPKREIGPATLKKLGEWAMTRNKSMFTASFDMGLSQTLSGRGYEALTRFTHWLAEIQRLAEREPIAAVRDLIHGMDYESWLYETSPSPKAAEMRMKNVNQLFSWMTEMLEGSELDEPMTLTQVVTRFTLRDMMERGESEEELDQVQLMTLHASKGLEFPYVYMVGMEEGFLPHQSSIDEDNIDEERRLAYVGITRAQKELTFTLCKERRQYGELVRPEPSRFLLELPQDDLIWEQERKVVSAEERMQKGQSHLANLKAMMAAKRGK",30-50 base pairs,
"UGI: uracil DNA glycosylase inhibitor fused to the HACE editor (protein, UniProt P14739 1-84, looked up, fused to HACE editor) Uracil-DNA glycosylase …: MTNLSDIIEKETGKQLVIQESILMLPEEVEEVIGNKPESDILVHTAYDESTDENVMLLTSDAPEYKPWALVIQDSNGENKIKML",,significantly elevated the editing levels
TraI: E. coli helicase (protein) MAKIHMVLQGKGGVGKSAIAAIIAQYKMDKGQTPLCIDTDPVNATFEGYKALNVRRLNIMAGDEINSRNFDTLVELIAPTKDDVVIDNGASSFVPLSHYLISNQVPALLQEMGHELVIHTVVTGGQALLDTVSGFAQLASQFPAEALFVVWLNPYWGPIEHEGKSFEQMKAYTANKARVSSIIQIPALKEETYGRDFSDMLQERLTFDQALADESLTIMTRQRLKIVRRGLFEQLDAAAVL,at least 850 base pairs,
"UvrD: E. coli helicase (protein, UniProt P03018 1-720, looked up) DNA helicase II: MDVSYLLDSLNDKQREAVAAPRSNLLVLAGAGSGKTRVLVHRIAWLMSVENCSPYSIMAVTFTNKAAAEMRHRIGQLMGTSQGGMWVGTFHGLAHRLLRAHHMDANLPQDFQILDSEDQLRLLKRLIKAMNLDEKQWPPRQAMWYINSQKDEGLRPHHIQSYGNPVEQTWQKVYQAYQEACDRAGLVDFAELLLRAHELWLNKPHILQHYRERFTNILVDEFQDTNNIQYAWIRLLAGDTGKVMIVGDDDQSIYGWRGAQVENIQRFLNDFPGAETIRLEQNYRSTSNILSAANALIENNNGRLGKKLWTDGADGEPISLYCAFNELDEARFVVNRIKTWQDNGGALAECAILYRSNAQSRVLEEALLQASMPYRIYGGMRFFERQEIKDALSYLRLIANRNDDAAFERVVNTPTRGIGDRTLDVVRQTSRDRQLTLWQACRELLQEKALAGRAASALQRFMELIDALAQETADMPLHVQTDRVIKDSGLRTMYEQEKGEKGQTRIENLEELVTATRQFSYNEEDEDLMPLQAFLSHAALEAGEGQADTWQDAVQLMTLHSAKGLEFPQVFIVGMEEGMFPSQMSLDEGGRLEEERRLAYVGVTRAMQKLTLTYAETRRLYGKEVYHRPSRFIGELPEECVEEVRLRATVSRPVSHQRMGTPMVENDSGYKLGQRVRHAKFGEGTIVNMEGSGEHSRLQVAFQGQGIKWLVAAYARLESV",30-40 base pairs,
